Laboratory results published in the supplement of paper PMC10567573.

B1: NP_006221.1 (parent)
chain: CQPISFSGFGAEDDDLGGLGLGP
B2: ZBTB22 (parent)
chain: RPFDCPVCNKKFKMKHHLTEHMKT

Variants of: B1
Assay: protein stability index of a GFP-peptide fusion (GPS, HEK-293T) (PSI 1-6); higher = more stable
Conditions: c terminus: native

Protein stability index of substitutions, site by site:
G22: N 3.35 | S 2.1 | V 2.11 | T 2.22 | K 4.15 | Y 2.59 | R 3.32 | P 4.39 | W 2.46 | L 2.46 | Q 2.27 | H 2.8 | M 2.32 | I 2.37
P23: Y 2.25 | T 3.8 | W 2.73 | D 5.01 | A 2.17 | V 3.45 | Q 4.25 | M 2.91 | N 4.72 | F 3.04 | S 4.5 | K 4.66 | E 4.96 | G 2.25 | H 3.99 | R 2.95 | I 2.95 | C 3.17 | L 3.57

Variants of: B2
Assay: as above
Conditions: c terminus: a fixed tail appended

Protein stability index, by site and new letter:
H16: E 3.27 | Q 2.7 | S 2.83 | T 2.39 | K 2.55 | R 2.29 | P 2.25 | G 2.11 | L 2.56 | I 2.08 | C 2.91 | F 1.9 | M 2.71 | D 2.56 | N 2.71 | A 2.59
K10: G 2.25 | W 1.7 | M 2.46 | D 2.43 | Q 2.21 | Y 2.29 | A 2.52 | N 2.45 | I 2.03 | T 2.96 | V 2.11 | R 2.37 | E 3.01 | S 2.63 | P 2.31 | F 2.34 | C 2.49 | H 2.47 | L 2.19
C5: L 2.6 | W 2.41 | V 2.61 | P 3.23 | G 3.3 | N 3 | Q 2.94 | M 2.9 | F 2.66 | Y 2.93 | E 3.76 | D 3.21 | S 3.15 | K 3.19 | I 2.64 | T 3.71 | A 2.51 | H 2.78 | R 3.21
M14: Y 3.1 | Q 3.17 | C 3.9 | N 3.89 | P 2.5 | V 2.58 | A 3.09 | T 3.75 | H 3.48 | S 3.96 | L 2.46 | K 2.93 | R 3.14 | I 2.35 | W 2.26 | G 2.69 | D 3.75 | F 2.84 | E 3.72
P6: H 2.27 | E 2.85 | R 2.12 | Y 2.25 | A 2.65 | N 2.68 | Q 2.32 | L 2.68 | V 2.37 | M 2.03 | F 2.15 | S 2.42 | I 2.03 | G 2.1 | W 1.86 | C 2.21 | K 2.9 | T 2.45 | D 3.46
F3: T 3.09 | Y 3.1 | M 2.45 | V 2.85 | R 1.98 | I 2.55 | P 2.74 | E 2.6 | Q 2.86 | N 3.06 | G 2.49 | K 2.61 | H 2.56 | L 2.35 | A 2.58 | W 2.57 | S 2.58 | D 2.93 | C 2.98
V7: R 2.39 | S 2.77 | T 2.47 | A 2.21 | H 3.27 | G 3.06 | N 2.48 | E 3.58 | M 2.25 | C 3.91 | D 2.82 | Y 3 | P 2.7 | K 2.96 | Q 2.45 | I 3.09 | W 2.85 | F 3.21 | L 2.53
F12: R 1.83 | E 3.22 | C 4.09 | Q 2.6 | I 2.49 | P 2.5 | T 2.64 | L 2.38 | K 2.1 | W 2.02 | S 2.53 | H 2.6 | N 1.96 | V 2.04 | Y 2.4 | M 2.78 | D 2.22 | G 2.65 | A 2.44
K11: I 2.36 | G 2.43 | R 2.8 | W 2.21 | F 1.8 | H 2.85 | T 2.91 | D 2.55 | E 2.89 | V 2.52 | Q 2.31 | N 2.79 | S 3.12 | P 2.34 | A 2.23 | L 2.25 | Y 2.17 | C 2.44 | M 1.84
K15: W 2.47 | C 4.13 | G 2.78 | P 2.67 | M 2.24 | L 2.65 | S 2.22 | V 2.62 | F 2.39 | T 1.87 | R 2.19 | Q 2.26 | A 2.03 | E 3.73 | Y 2.37 | D 2.85 | N 2.12 | H 2.24 | I 1.76
R1: T 2.96 | Y 2.38 | W 2.09 | P 3.17 | L 2.35 | A 3 | D 3.31 | F 2.38 | V 2.74 | C 3.18 | G 3.08 | N 2.64 | I 2.87 | K 2.74 | M 2.71 | H 2.88 | E 3.67 | S 2.71 | Q 2.8
K13: A 2.85 | M 2.27 | P 2.74 | C 4.49 | D 3.45 | G 2.6 | F 2.33 | H 2.65 | T 3.12 | Q 3.12 | L 2.89 | I 2.14 | W 2.58 | N 2.29 | E 3.31 | V 2.9 | R 2.33 | S 2.91 | Y 2.72
C8: M 2.93 | A 2.99 | R 3.08 | L 2.92 | E 2.97 | T 3.48 | G 2.8 | D 3.25 | F 2.26 | N 2.98 | H 3 | I 2.72 | V 3.5 | K 3.34 | S 3.03 | W 2.42 | Y 2.9 | P 2.62 | Q 2.81
N9: H 3.23 | Q 2.33 | S 2.43 | I 1.92 | G 3.59 | F 2.27 | A 2.95 | M 2.54 | W 1.49 | L 2.83 | D 3.13 | V 2.06 | T 2.27 | E 3.36 | K 3.23 | Y 2.07 | R 2.03 | C 2.43 | P 2.43
P2: E 3.26 | V 2.12 | C 2.19 | Y 2.6 | H 2.97 | T 3.84 | W 2.52 | F 2.72 | G 2.46 | S 3.39 | Q 2.76 | D 3.24 | A 2.83 | L 2.3 | I 2.37 | N 2.34 | K 2.83 | M 2.46 | R 2.12
D4: V 3.54 | T 3.43 | L 2.92 | F 2.95 | I 3.62 | W 2.6 | P 1.71 | Q 3.46 | C 3.54 | A 3.31 | N 2.88 | G 2.73 | E 3.6 | Y 3.25 | S 3.5 | M 3.5 | R 3.1 | H 2.87 | K 3.28
